Measurements reported in patent publication US20030003563, “Method of using a crystal of the N-terminal domain of a signal transducer and activator of transcription” (published 2003).

Columns and labels:
[1] = biological target: STAT-1alpha (Tyr-phosphorylated, wild type) (Homo sapiens, UniProt P42224 P42224:2-750); assay: EMSA; used to titrate active protein; conditions: tags: in vitro Tyr-phosphorylated with EGF-receptor kinase; chain copies: 4 (two dimers on tandem site; stated)
Source text: (§1) Gel shift experiments and determination of tetramer stability were done as described [Vinkemeier et al., EMBO J. 15:5616 (1996)] with an oligonucleotide containing two copies of the STAT recognition element from the c-fos gene [Wagner et al., EMBO J. 9:4477 (1990)] spaced by 10 base pairs (5′-[…]-3′). Both protein preparations (Tyr-phosphorylated wild type STAT-1α and W37A mutant) were titrated in gel shift experiments with an oligonucleotide containing a single M67 site (5′-[…]-3′) [Wagner et al., EMBO J. 9:4477 (1990)] to assure similar loading of active protein. […] The time necessary to reach equilibrium was assessed by EMSA [(Stone et al., in Jost, J. P. & Saluz, H. P. (eds.) A Laboratory Guide to In Vitro Studies of Protein-DNA Interactions BioMethods, vol.5:163-195 (1991)]. For all DNA fragments tested, equilibrium turned out to be fully established at the earliest timepoint that can be determined by this technique (30 sec). Therefore incubation periods of 5-15 minutes were chosen. Reaction products were loaded onto a 4% polyacrylamide gel (1.5 mm thick) containing 0.25× Tris-borate-EDTA which had been pre-run at 20V/cm for 2 hours at 4° C. Electrophoresis was continued for 60 minutes at 4° C. Gels were dried and exposed to X-ray film and quantitated by a Molecular Dynamics Phospholmager.

[2] = biological target: STAT-1alpha W37A (Tyr-phosphorylated) (Homo sapiens, UniProt P42224 P42224:2-750, W37A); assay: EMSA; used to titrate active protein; conditions: tags: C-terminal 6xHis; baculovirus insect cells; chain copies: 2 (dimer; stated)
Sequence of STAT-1alpha W37A (Tyr-phosphorylated) (P42224 2-750 W37A, one chain of several): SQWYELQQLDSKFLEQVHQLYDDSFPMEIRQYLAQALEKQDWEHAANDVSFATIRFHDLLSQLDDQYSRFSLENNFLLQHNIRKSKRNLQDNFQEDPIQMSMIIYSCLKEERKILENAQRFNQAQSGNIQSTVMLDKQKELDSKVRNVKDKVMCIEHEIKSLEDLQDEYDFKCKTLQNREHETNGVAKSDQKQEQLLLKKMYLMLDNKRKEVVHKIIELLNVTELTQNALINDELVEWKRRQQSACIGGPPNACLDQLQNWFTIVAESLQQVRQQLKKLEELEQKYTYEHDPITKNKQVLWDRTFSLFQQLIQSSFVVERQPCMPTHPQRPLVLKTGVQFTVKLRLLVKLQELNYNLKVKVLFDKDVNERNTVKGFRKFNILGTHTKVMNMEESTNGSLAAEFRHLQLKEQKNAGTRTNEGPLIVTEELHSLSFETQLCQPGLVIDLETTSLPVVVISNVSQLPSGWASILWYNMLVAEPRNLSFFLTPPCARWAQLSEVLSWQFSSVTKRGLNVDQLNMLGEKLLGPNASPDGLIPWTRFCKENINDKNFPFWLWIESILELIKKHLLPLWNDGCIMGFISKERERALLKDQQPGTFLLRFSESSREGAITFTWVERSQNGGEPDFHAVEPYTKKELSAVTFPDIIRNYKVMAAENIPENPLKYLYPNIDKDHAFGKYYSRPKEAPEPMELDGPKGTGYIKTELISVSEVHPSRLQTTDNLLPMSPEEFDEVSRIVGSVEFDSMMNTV
Source text: as §1

[3] = biological target: STAT-1alpha wild type (transfected, U3A cells) (Homo sapiens, UniProt P42224 P42224:2-750); assay: cell_activity; IFN-gamma 5 ng/ml, 10 h, luciferase in U3A cells; conditions: tags: pcDNA3 expression
Sequence of STAT-1alpha wild type (transfected, U3A cells) (P42224 2-750, one chain of several): as the sequence (P42224 2-750 W37A, one chain of several) above, with A36W counted along it
Protocol: FIG. 4B show the effect of STAT-1 W37A mutation on interferon-γ (IFN-γ) stimulated gene activation in vivo. U3A cells that are lacking STAT-1 [Miller et al., EMBO J. 12:4221 (1993)] were transfected with expression clones containing either wild type or mutant STAT-1 (see Methods of the EXAMPLE, below) along with a luciferase reporter containing a tandem STAT binding site as an enhancer. After stimulation with IFN-γ for 10 hours, luciferase expression was determined spectroscopically (represented as bars). Cells transfected with the wild type protein show an about 2-fold increase in luciferase expression. […] Each bar represents ten individual parallel experiments. Error bars denote standard deviation from the mean.
Transient transfections were performed on six well plates with 50% confluent U3A cells using the calcium phosphate method as instructed by the manufacturer (Stratagene) with the following modifications. Transfection reactions contained per well 4.5 μg of either wild type STAT-1α or the W37A mutant in plasmid pcDNA3 (Invitrogen), 4 μg luciferase reporter plasmid pLuc, and 0.4 μg β-galactosidase reporter plasmid (Stratagene).
The luciferase reporter contained in its BamH1 site as an enhancer element two tandemly arranged “weak” STAT-1 binding sites (5′-[…]-3′, binding sites underlined) from the human c-fos promoter. […]

Sequence of STAT-1alpha (Tyr-phosphorylated, wild type) (P42224 2-750, one chain of several): as the sequence (P42224 2-750 W37A, one chain of several) above, with A36W counted along it

| Binder | binding result [1] | binding result [2] | activity [3] [fold induction] |
| --- | --- | --- | --- |
| single M67 site (dsDNA) DNA 1: GCCGATTTCCCGTAAATCAT DNA 2: ATGATTTACGGGAAATCGGC | binds | binds |  |
| luciferase reporter enhancer with two weak STAT-1 sites (dsDNA) DNA 1: GATCAGTTCCCGTCAATCATGATCCAGTTCCCGTCAATGATCCCCGGGATC DNA 2: GATCCCGGGGATCATTGACGGGAACTGGATCATGATTGACGGGAACTGATC |  |  | ~2 |
